From the supplement of paper PMC10567573

B1: CCND2 (parent)
chain: YFKCVQKDIQPYMRRMVATWMLEV
B2: TAF7L (parent)
chain: PDVENEVKRLLRSDAEAVSTRWEV

Variants of: B1
Test: protein stability index of a GFP-peptide fusion (GPS, HEK-293T) (PSI 1-6); higher = more stable
Details: c terminus: a fixed tail appended
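Also: lentivirally expressed fusions sorted by FACS into six bins by GFP to DsRed ratio, PSI derived from sequencing read proportions per bin multiplied by bin number.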

Protein stability index of substitutions, site by site:
C4: G 2.21, H 2.37, A 2.47, Y 3.12, E 1.28, N 3.42, M 2.81, P 2.44, I 2.84, S 3.14, K 2.45, V 3.69, F 4.64, Q 1.44, T 1.74, R 2.25, W 3.23
P11: S 2.5, H 4.06, D 2.22, N 2.54, K 2.82, E 2.85, V 2.82, I 2.9, M 3.69, F 3.77, T 2.34, Y 2.74, C 2.36, Q 3.25, W 3.21
D8: I 2.58, G 3.98, L 2.05, T 2.37, P 3.13, W 2.03, C 2.87, H 2.21, Y 3.53, K 2.94, E 2.37, N 2.16, S 3.28
Y1: W 2.82, H 3.71, C 1.94, P 1.71, T 2.37, D 2.58, S 2.85, A 3.09, F 2.3, M 2.11, L 2.14, Q 3.55, E 1.88, R 1.87, N 2.23, V 3.34, K 3.54, I 2.47
V5: R 4.02, G 1.47, A 2.25, P 3.14, D 2.41, K 2.25, Q 2.37, L 2.71, N 2.54, M 2.48, I 2.92, C 2.36, Y 4, F 2.7, S 1.43, E 2.58, T 3.62, W 2.9, H 2.23
Y12: M 5.01, S 2.83, D 3.35, N 2.38, R 4.86, H 2.54, A 3.33, W 2.43, T 2.66, V 3.11, L 3.19, C 2.89, P 1.89, I 2.54, Q 3.19, K 3.07
Q6: L 2.53, I 1.91, W 1.64, G 2.47, R 2.65, K 3.15, F 2.07, A 1.97, C 3.44, S 2.37, V 1.79, D 2.65, E 3.62, T 2.38, Y 2.64, N 1.9, P 2.49
K7: P 2.48, S 3.21, L 2.56, N 2.66, G 2.97, V 3.05, Y 2.54, Q 2.1, E 4.8, R 2.69, F 1.98, W 2.12, T 3.22, M 2.53, H 4.29, I 3.33, D 1.91
I9: V 1.06, R 1.77, K 1.52, D 2.71, L 3.16, S 3.49, G 3.25, Y 3.57, E 3.71, F 2.47, H 2.78, P 3.18, T 3.39, M 3.79, Q 2.61, C 2.51
Q10: G 2.42, A 3.8, N 3.3, M 2.06, Y 3.78, T 2.71, L 2.64, R 2.02, E 2.32, K 3.06, S 3.22, V 2.5, W 3.11, I 3.17, P 3.81, C 3.12, H 2.84, D 2.77, F 1.99
K3: T 3.31, D 3.48, P 2.33, N 2.9, I 2.78, A 2.64, M 2.96, G 1.86, Q 2.12, C 2.89, H 3.13, Y 3.04, E 3.31, L 2.71, V 3.12, W 2.44, S 3.75
F2: T 2.61, S 3.5, N 2.66, K 2.95, W 2.75, C 2.61, L 2.85, M 1.89, R 2.33, I 2.9, E 4.07, A 2.97, Y 2.68, D 2.15, Q 3.63, V 2.15, G 3.84
M13: D 2.8, A 3.23, E 2.88, C 2.43, F 3.07

Variants of: B2
Test: as above
Details: c terminus: a fixed tail appended

Protein stability index, by site and new letter:
S19: P 3.75, F 2.73, H 3.18, M 2.48, G 3.54, I 3.03, Y 2.08
E23: L 2.29, Y 2.56, M 2.4, A 3.52, C 2.83, Q 2.68, R 2.75, H 3.56, P 3.2, G 3.86, T 2.96, I 2.59, S 2.53, K 3.59
V24: E 4.13, P 4.63, M 4.29, C 4.15, R 4.36, G 4.61, N 5.33, D 4.24, A 4.61, T 4.31, Y 3.51
A17: V 3.35, F 2.64, G 3.69, T 2.71, N 3.61, S 3.93, C 3.54, P 3.28
W22: G 5.31, F 3.83, Q 5.11, I 4.49, R 4.92, D 5.66, P 4.92, T 5.07, E 5.52, L 4.8, A 5.26, C 3.63, V 4.21, N 5.45, H 4.79
A15: L 3.58, G 3.97, H 3.88, E 4.36, Q 3.46, Y 3.51, T 1.9, S 3.22, P 3.19, D 4.09, W 2.93, V 3.02, F 2.57, R 2.99, N 3.54
E16: P 3.18, Q 3.22, M 1.71, H 2.9, T 2.77, C 2.01, F 2.27, D 3.74, L 2.73, I 2.08, K 2.65, Y 1.46, R 2.12, S 3.17
T20: K 3.85, A 4.18, D 2.76, L 2.29, E 3.99, S 3.32, H 2.22, P 2.15, F 2.74, M 2.26, Y 2.43, N 3.28, R 3.29, Q 3.34, I 2.12, V 2.39
R21: T 3.06, N 4.93, L 2.86, C 2.61, D 5.01, M 3.61, Y 2.51, P 3.87, Q 4.18, I 2.96, H 3.58, G 4.36, F 2.53, V 3.2, E 5.41, A 3.19, S 2.95, K 3.76
V18: Y 3.37, T 3.83, P 3.31, Q 3.9, W 2.22, K 2.9, F 2.31, G 4.29, E 4.54, M 4.78
